# According to publication PMC12340910, “Structural basis for transport and inhibition of nucleotide sugar transport in pathogenic fungi” (Research Square, 2025):
# T1: CaVrg4; C. albicans Vrg4; GDP-mannose transporter Vrg4 (Candida albicans, UniProt Q5A477)
# T1 construct: first 33 residues excluded; expressed in S. cerevisiae BJ5460 from pDDGFP-Leu2D; His-tagged GFP fusion cut by TEV; DDM/DM purified, reconstituted into liposomes; ~37 kDa
# T1 sequence (Q5A477 34-371): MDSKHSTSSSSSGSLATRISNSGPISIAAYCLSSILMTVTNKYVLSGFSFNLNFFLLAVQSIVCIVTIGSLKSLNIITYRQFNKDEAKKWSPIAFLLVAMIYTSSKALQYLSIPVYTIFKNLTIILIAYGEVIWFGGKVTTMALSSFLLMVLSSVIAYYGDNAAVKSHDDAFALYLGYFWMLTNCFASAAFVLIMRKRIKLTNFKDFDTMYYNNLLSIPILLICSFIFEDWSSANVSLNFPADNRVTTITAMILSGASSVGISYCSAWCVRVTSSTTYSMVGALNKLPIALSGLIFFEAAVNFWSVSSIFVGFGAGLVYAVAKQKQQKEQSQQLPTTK
# B1: Nanobody NB3 (VHH)
# VHH: QVQLVESGGGLVQPGGSLRLSCAASGSISEINVMGWYRQAPGKQRELVARITTGGSTNYADSVKGRFTISRDNAKNTVYLQMNSLKPEDTAVYMCNAHRRVVMEWGPLGYDYWGQGTQVTVSS
# notes: source: subcloned into the pSBinit vector and purified; not shown: Myc, C-terminal, kept; His, C-terminal, kept
# B2: Nanobody NB4 (VHH)
# VHH: QVQLVESGGGLVQAGGSLRLSCAASGRTFRSYTLGWFRQAPGKEREFVAAIKWSTDTTYYADSVKGRFTISGDNAKNTVYLQMNSLKPEDTAVYFCAARSLSTVIAGPEIPWPYNSWGQGTQVTVSS
# notes: as for B1
# Experiments:
# [1] = target: T1, CaVrg4; C. albicans Vrg4; GDP-mannose transporter Vrg4; experiment: cryo-EM structure, […] Å; assay type: binding; settings: complex with nanobody NB4, cytoplasmic-facing state; endogenous co-purified ligand; density suboptimal for precise ligand modelling
# [2] = target: T2, Candida albicans Vrg4, Avi-tagged (C terminus), biotinylated (Candida albicans (UniProt Q5A477, …, UniProt Q5A477)); experiment: ELISA; dilution series of each nanobody captured by its Myc tag on MaxiSorp plates with protein A and anti-c-Myc antibody; 50 nM biotinylated CaVrg4 added for 40 minutes; streptavidin-peroxidase polymer, TMB, absorbance at 650 nm; KD from the 'one site - total binding' equation; settings: both partners purified
# T2 construct: also called biotinylated CaVrg4; purified CaVrg4; source: S. cerevisiae BJ5460, purified as the untagged version, biotinylated using BirA ligase; not shown: Avi tag, C-terminal, kept
Molecule,"cryo-EM structure, 3.4 Å [1]",Kd [2]
Nc1nc2c(ncn2[C@@H]2O[C@H](COP(=O)(O)OP(=O)(O)O[C@H]3O[C@H](CO)[C@@H](O)[C@H](O)[C@@H]3O)[C@@H](O)[C@H]2O)c(=O)[nH]1 [GDP-mannose],"in the maps obtained for the NB4-bound structure, we observed density consistent with the endogenous ligand",–
B1,–,~3 nM
B2,–,~10 nM
